The source of these data is patent publication US20040086528A1 (PROGENICS PHARMACEUTICALS, published 2004).

What all share (assay): cell-based or functional assay
Test [1] deals with T1, CCR5 D11A, HA-tagged (human, UniProt P51681 1-352).
T1 sequence (looked up): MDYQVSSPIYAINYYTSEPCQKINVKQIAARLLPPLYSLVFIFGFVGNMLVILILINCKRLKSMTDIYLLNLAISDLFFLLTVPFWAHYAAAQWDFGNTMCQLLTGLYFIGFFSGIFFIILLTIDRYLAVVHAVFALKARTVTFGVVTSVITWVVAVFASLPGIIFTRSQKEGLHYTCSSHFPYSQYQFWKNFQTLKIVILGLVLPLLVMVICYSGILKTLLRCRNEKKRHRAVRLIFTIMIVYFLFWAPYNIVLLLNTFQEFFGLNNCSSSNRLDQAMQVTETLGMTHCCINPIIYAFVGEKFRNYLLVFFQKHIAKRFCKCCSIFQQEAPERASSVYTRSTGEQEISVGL

Test [2] has as its target T2, CCR5 E18A, HA-tagged (human, UniProt P51681 1-352).
T2 sequence (looked up): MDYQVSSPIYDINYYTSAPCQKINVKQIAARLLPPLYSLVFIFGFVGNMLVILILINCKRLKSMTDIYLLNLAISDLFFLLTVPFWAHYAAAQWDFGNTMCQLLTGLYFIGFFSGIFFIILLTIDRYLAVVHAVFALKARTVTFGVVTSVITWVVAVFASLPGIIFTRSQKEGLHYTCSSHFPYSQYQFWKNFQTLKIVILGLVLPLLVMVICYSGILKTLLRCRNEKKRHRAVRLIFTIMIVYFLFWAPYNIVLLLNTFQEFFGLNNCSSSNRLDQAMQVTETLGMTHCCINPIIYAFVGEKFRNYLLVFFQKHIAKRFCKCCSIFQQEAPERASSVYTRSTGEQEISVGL

For test [3], the target named is T3, CCR5 K22A, HA-tagged (human, UniProt P51681 1-352).
T3 sequence: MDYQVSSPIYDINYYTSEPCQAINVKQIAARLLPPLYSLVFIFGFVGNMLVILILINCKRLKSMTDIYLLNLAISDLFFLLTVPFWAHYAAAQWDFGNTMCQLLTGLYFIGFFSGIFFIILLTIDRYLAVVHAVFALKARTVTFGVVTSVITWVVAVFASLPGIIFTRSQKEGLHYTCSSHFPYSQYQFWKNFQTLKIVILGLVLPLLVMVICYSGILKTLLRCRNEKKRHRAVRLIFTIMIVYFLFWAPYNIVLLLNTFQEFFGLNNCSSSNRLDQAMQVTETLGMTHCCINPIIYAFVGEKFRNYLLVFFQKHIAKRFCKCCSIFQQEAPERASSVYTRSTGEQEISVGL

For test [4], the target named is T4, CCR5 Q102A, HA-tagged (human, UniProt P51681 1-352).
T4 sequence: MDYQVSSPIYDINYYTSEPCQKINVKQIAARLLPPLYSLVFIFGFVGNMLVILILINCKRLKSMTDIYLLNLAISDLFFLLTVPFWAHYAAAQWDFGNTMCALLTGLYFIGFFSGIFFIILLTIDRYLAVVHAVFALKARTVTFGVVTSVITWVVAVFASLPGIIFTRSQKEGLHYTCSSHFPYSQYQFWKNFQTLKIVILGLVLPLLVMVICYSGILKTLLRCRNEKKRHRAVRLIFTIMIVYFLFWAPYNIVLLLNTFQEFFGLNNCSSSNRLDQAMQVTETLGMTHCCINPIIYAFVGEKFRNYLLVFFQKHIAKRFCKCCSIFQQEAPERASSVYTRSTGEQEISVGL

In test [5] the target is T5, CCR5 K171A/E172A, HA-tagged (human, UniProt P51681 1-352).
T5 sequence: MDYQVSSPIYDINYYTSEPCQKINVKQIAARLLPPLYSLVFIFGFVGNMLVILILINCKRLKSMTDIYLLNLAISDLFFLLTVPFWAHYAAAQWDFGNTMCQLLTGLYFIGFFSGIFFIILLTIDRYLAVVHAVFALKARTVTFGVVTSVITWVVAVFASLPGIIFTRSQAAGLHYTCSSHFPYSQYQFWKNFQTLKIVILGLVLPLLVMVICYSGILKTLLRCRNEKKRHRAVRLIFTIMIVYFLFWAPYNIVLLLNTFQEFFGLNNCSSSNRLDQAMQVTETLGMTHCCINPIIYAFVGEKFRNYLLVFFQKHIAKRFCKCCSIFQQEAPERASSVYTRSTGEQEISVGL

The target of test [6] is T6, CCR5 Y184A, HA-tagged (human, UniProt P51681 1-352).
T6 sequence: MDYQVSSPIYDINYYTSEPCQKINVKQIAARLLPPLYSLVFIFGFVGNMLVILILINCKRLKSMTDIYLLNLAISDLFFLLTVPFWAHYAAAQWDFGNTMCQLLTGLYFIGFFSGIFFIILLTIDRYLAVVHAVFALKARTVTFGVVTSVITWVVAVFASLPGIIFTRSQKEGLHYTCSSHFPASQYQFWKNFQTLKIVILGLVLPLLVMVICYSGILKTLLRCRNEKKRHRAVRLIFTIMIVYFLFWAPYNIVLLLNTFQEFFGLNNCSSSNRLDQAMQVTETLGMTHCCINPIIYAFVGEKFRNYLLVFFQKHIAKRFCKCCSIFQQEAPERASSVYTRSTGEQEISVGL

For test [7], the target named is T7, CCR5 K191A/N192A, HA-tagged (human, UniProt P51681 1-352).
T7 sequence: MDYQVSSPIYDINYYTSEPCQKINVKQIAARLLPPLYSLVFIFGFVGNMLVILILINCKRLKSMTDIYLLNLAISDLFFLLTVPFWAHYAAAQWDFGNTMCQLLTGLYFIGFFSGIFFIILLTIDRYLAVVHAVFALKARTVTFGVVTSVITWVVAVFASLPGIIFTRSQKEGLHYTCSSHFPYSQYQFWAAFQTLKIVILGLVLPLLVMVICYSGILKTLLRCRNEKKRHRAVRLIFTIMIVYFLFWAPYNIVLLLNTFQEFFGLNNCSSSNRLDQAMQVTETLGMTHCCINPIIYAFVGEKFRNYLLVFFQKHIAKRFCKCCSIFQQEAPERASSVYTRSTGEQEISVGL

B1: macrophage inflammatory protein (MIP)-1β, recombinant human (ligand, UniProt P13236 24-92, looked up)
chain: APMGSDPPTACCFSYTARKLPRNFVVDYYETSSLCSQPAVVFQTKRSKQVCADPSESWVQEYVYDLELN
For B1, the “relative % inhibition of NLluc/JR-FL entry into U87MG-CD4 cells by 2 µg/ml chemokine (wild-type = 100)” value (“relative % inhibition” for short) in test [1] turned out to be 41%; in test [2], 100%; in test [3], 12%; in test [4], 98%; in test [5], 97%; in test [6], 68%. In addition, in test [7], the “relative % inhibition” value worked out at 15%.

B2: RANTES, recombinant human (ligand)
chain: SPYSSDTTPCCFAYIARPLPRAHIKEYFYTSGKCSNPAVVFVTRKNRQVCANPEKKWVREYINSLEMS
B2: the “relative % inhibition” value is 7% in test [1]; 62% in test [2]; -11% in test [3]; 93% in test [4]; 107% in test [5]; 36% in test [6]. In addition, the “relative % inhibition” value in test [7] was found to be 18%.
